From PMC8830441, “Interaction of TLK1 and AKTIP as a Potential Regulator of AKT Activation in Castration-Resistant Prostate Cancer Progression” (Pathophysiology, 2021) come the findings set out here.

This assay addresses T1, Full-length, wild-type recombinant His-tagged TLK1B (human, UniProt Q9UKI8-3 1-549).
T1 construct: wild-type, full-length TLK1B; also called His-TLK1B; recombinant TLK1; source: bacterial expression plasmid, recombinant, purified according to the published literature
T1 sequence (looked up): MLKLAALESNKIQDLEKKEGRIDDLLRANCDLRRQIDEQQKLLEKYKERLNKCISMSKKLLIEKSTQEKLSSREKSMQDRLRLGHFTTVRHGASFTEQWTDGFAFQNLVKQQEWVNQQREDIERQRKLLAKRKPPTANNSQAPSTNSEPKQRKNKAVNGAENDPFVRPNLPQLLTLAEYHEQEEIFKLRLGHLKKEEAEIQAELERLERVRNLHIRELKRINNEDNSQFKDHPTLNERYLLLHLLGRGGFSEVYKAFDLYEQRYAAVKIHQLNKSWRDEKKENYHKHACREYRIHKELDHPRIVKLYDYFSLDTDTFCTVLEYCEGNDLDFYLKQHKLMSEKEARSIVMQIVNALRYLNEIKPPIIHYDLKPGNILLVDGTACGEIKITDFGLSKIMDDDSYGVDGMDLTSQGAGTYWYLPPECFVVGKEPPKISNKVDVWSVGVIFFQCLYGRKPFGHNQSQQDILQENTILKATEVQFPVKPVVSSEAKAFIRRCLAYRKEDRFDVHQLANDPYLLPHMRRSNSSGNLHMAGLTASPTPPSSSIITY
Briefly: pull-down; His-TLK1B and GST-AKTIP, 1 µg of each, incubated on ice 30 min, isolated on Ni-NTA agarose beads, washed with cell lysis buffer, WB for AKTIP. The note with it: both partners purified.

B1: wild-type full-length human GST-AKTIP (natural protein, UniProt Q9H8T0 1-292, looked up)
chain: MNPFWSMSTSSVRKRSEGEEKTLTGDVKTSPPRTAPKKQLPSIPKNALPITKPTSPAPAAQSTNGTHASYGPFYLEYSLLAEFTLVVKQKLPGVYVQPSYRSALMWFGVIFIRHGLYQDGVFKFTVYIPDNYPDGDCPRLVFDIPVFHPLVDPTSGELDVKRAFAKWRRNHNHIWQVLMYARRVFYKIDTASPLNPEAAVLYEKDIQLFKSKVVDSVKVCTARLFDQPKIEDPYAISFSPWNPSVHDEAREKMLTQKKPEEQHNKSVHVAGLSWVKPGSVQPFSKEEKTVAT
notes: also called GST-tagged AKTIP; source: bacterial expression plasmid, recombinant, purified from bacteria according to the published literature
Regarding B1, the binding result was “binds”.
